{
  "source": "paper doi:10.1101/795211",
  "about": "(bioRxiv, 2019)",
  "binders": {"B1": {"name": "His-AtYefM, YefM antitoxin from Agrobacterium tumefaciens expressed alone (pET15b), His affinity tag kept (natural protein, Agrobacterium tumefaciens strC58, UniProt Q7CY23 1-84, looked up)", "chain": "MANVRFTEFRQNFATHFDRVLETRAPLLVTRQGKEAVVVLAEGEYESMQETLHLLSNPANASRLRASMGELERGDTIERDPTEE"}, "B2": {"name": "YoeB toxin from Agrobacterium tumefaciens (AtYoeB), expressed alone, after removal of the GST-His affinity tag (natural protein)", "chain": "MKLVWTLSSWDDYEFWQRTDARMVEKINDLIRNAKRTPFAGLGKPEPLKGDMAGYWSRRITAEHRFVYRVSGSGSEQRLEVIQCRFHYQ"}, "B3": {"name": "AtYoeB co-expressed with His-AtYefM from the pET-Duet vector (natural protein)", "chain": "B2 chain"}},
  "key": {"[1]": {"biological_target": "the molecule itself", "test": "SEC-MALS"}, "[2]": {"biological_target": "T1, His-tagged AtYefM co-expressed with AtYoeB from the pET-Duet vector (Agrobacterium tumefaciens strC58, UniProt Q7CY23 1-84)", "T1 sequence (looked up)": "B1 chain", "test": "SEC-MALS"}},
  "data": [
    {"binder": "B1", "values": [
      {"measurement": "stoichiometry N", "setting": "[1]", "result": 2}
    ]},
    {"binder": "B2", "values": [
      {"measurement": "stoichiometry N", "setting": "[1]", "result": 2}
    ]},
    {"binder": "B3", "values": [
      {"measurement": "stoichiometry N", "setting": "[2]", "result": 1}
    ]}
  ]
}
